“And” between values parts separate entries of the source, which are not always exact repeats. Equal entries are not always repeated.
How the values were obtained:
[1] = biological target: PEG Variants of SEQ ID NO 22 (PEGylated Cysteine variants of fibrin domain fusion form of SK)
[2] = biological target: PEG Variants of SEQ ID NO 24 (PEGylated Cysteine variants of fibrin domain fusion form of SK)
[3] = biological target: T1, PEGylated SK C-383 Cys (SEQ ID NO 492), Cys at C + 1 position of SK 1-383, G3
T1 chain: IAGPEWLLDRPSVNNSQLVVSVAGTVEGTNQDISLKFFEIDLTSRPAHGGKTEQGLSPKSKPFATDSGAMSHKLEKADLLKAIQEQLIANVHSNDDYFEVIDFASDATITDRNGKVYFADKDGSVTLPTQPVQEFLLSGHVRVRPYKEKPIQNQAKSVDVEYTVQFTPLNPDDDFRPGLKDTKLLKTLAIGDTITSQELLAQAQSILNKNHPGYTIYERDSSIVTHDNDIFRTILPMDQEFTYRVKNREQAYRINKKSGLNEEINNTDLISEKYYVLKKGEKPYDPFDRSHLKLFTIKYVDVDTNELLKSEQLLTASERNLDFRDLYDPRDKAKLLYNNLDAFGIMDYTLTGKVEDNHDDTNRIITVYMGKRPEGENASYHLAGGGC

[4] = biological target: T2, PEGylated SK C-Cys (SEQ ID NO 490), Cys at C + 1 position in SK
T2 chain: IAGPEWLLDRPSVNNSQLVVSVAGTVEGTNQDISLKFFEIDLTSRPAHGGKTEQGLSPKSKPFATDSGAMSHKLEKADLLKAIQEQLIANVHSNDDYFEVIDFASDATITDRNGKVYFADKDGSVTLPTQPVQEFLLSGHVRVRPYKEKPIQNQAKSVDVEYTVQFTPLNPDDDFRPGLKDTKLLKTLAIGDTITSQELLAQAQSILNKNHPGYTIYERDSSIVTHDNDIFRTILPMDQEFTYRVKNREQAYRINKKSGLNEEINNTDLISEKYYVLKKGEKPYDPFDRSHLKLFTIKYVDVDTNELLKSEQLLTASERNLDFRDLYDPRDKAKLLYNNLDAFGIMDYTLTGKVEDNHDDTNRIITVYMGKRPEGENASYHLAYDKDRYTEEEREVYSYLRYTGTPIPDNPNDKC

[5] = biological target: T3, PEGylated SK D95C (SEQ ID NO 30)
T3 chain: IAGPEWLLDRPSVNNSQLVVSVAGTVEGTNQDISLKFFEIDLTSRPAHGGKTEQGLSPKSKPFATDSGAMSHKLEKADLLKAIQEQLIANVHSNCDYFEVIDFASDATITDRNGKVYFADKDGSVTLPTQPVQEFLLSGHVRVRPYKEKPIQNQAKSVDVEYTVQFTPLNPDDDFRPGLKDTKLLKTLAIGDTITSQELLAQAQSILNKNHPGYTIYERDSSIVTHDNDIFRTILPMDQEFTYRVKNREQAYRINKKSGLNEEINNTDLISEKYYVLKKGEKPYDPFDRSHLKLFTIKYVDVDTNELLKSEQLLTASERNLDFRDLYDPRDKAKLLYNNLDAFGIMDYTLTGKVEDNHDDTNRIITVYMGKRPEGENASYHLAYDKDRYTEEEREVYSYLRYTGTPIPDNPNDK

[6] = biological target: T4, PEGylated SK N255C (SEQ ID NO 46)
T4 chain: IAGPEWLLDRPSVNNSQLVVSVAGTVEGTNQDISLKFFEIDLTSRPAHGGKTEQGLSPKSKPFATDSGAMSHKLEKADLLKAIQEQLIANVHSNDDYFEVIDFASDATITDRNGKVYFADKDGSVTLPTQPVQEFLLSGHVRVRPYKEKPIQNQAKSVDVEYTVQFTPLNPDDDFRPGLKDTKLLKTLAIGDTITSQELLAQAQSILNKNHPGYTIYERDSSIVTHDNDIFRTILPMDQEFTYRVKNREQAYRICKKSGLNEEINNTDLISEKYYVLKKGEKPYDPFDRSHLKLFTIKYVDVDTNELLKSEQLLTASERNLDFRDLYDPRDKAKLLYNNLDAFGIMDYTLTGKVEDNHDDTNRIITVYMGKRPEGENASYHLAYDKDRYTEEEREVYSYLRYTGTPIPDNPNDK

[7] = biological target: T5, PEGylated SK Ser 258 Cys (SEQ ID NO 49)
T5 chain: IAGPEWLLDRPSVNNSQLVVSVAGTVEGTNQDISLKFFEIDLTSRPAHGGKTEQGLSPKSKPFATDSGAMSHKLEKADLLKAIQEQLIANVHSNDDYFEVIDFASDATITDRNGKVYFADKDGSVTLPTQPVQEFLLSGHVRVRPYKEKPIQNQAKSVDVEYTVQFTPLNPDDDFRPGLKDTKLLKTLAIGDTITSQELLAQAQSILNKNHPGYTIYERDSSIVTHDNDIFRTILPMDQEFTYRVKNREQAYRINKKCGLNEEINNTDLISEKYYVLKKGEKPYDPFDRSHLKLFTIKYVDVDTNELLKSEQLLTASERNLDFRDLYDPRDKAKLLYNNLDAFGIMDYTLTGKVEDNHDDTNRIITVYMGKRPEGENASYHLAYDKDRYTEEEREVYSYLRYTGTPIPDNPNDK

[8] = biological target: T6, bi-pegylated NC 1-383 (SEQ ID NO 493), Cys at N - 1 and at C + 1 position in SK (1-383, G3)
T6 chain: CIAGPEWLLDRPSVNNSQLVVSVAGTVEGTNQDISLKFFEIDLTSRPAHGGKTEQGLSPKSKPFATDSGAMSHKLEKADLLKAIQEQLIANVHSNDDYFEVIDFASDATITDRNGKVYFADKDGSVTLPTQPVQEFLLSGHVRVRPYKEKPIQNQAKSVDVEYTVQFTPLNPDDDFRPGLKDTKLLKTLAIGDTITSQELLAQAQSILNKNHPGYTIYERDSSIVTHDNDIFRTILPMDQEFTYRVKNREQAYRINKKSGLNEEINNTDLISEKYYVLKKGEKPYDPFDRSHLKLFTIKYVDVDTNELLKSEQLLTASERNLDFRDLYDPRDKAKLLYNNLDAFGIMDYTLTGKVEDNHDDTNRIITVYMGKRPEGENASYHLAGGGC

B1: human plasminogen (HPG) (protein)
chain: KVYLSECKTGNGKNYRGTMSKTKNGITCQKWSSTSPHRPRFSPATHPSEGLEENYCRNPDNDPQGPWCYTTDPEKRYDYCDILECEEECMHCSGENYDGKISKTMSGLECQAWDSQSPHAHGYIPSKFPNKNLKKNYCRNPDRELRPWCFTTDPNKRWELCDIPRCTTPPPSSGPTYQCLKGTGENYRGNVAVTVSGHTCQHWSAQTPHTHNRTPENFPCKNLDENYCRNPDGKRAPWCHTTNSQVRWEYCKIPSCDSSPVSTEQLAPTAPPELTPVVQDCYHGDGQSYRGTSSTTTTGKKCQSWSSMTPHRHQKTPENYPNAGLTMNYCRNPDADKGPWCFTTDPSVRWEYCNLKKCSGTEASVVAPPPVVLLPDVETPSEEDCMFGNGKGYRGKRATTVTGTPCQDWAAQEPHRHSIFTPETNPRAGLEKNYCRNPDGDVGGPWCYTTNPRKLYDYCDVPQCAAPSFDCGKPQVEPKKCPGRVVGGCVAHPHSWPWQVSLRTRFGMHFCGGTLISPEWVLTAAHCLEKSPRPSSYKVILGAHQEVNLEPHVQEIEVSRLFLEPTRKDIALLKLSSPAVITDKVIPACLPSPNYVVADRTECFITGWGETQGTFGAGLLKEAQLPVIENKVCNRYEFLNGRVQSTELCAGHLAGGTDSCQGDSGGPLVCFEKDKYILQGVTSWGLGCARPNKPGVYVRVSRFVTWIEGVMRNN
Km [1]: 0.25 µM and 0.6 µM
Km [2]: 0.48 µM
Km [3]: 0.4 µM
Km [4]: 0.4 µM
Km [5]: 0.5 µM
Km [6]: 0.4 µM
Km [7]: 0.5 µM
Km [8]: 0.48 µM
